Common to all, as to experiment: EMSA
For series [1], the target named is T1, C.Csp231I C-ARQ (Cmut) (Citrobacter sp. (Csp231I R-M system), UniProt Q32WH4 1-98, A33G;R34E;Q37A).
T1 sequence: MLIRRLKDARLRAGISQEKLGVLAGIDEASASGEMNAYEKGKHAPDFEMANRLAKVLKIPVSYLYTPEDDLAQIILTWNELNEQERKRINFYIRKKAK

Series [2] has as its target T2, C.Csp231I (C protein, WT) (Citrobacter sp. (Csp231I R-M system), UniProt Q32WH4 1-98).
T2 sequence: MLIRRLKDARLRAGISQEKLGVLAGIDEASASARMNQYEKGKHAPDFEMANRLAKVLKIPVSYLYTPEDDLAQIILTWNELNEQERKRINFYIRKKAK

For series [3], the target named is T2, C.Csp231I (C protein, WT). This is another data set of the same source.

Like-named read-outs stand apart in the source and are kept apart here.

B1: racR (176 bp) (dsDNA)
DNA 1: GCGACGCCTAACGCAATTGTCAATAGGCTGTGCCTAATGCAGTAAGGGTAGGGATTGCCTAATGTAATGCGCATAGGAGAATATTAAGCAATGCTTAGTGGTAAAGACTTAGGCCGAGCGATAGAGCAGGCCATTAACAAAAAAATCGCATCGGGATCCGTCAAATCAAAGGCGG
DNA 2: CCGCCTTTGATTTGACGGATCCCGATGCGATTTTTTTGTTAATGGCCTGCTCTATCGCTCGGCCTAAGTCTTTACCACTAAGCATTGCTTAATATTCTCCTATGCGCATTACATTAGGCAATCCCTACCCTTACTGCATTAGGCACAGCCTATTGACAATTGCGTTAGGCGTCGC
B1: the binding result in series [1] is given as “no binding”; in series [2] it was “binds”.

B2: racRmut (176 bp) (dsDNA)
DNA 1: GCGACGCCTAACGCAATTGTCAATAGGCTGTGCCTAATGCAGTAAGGGTAGGGATTGCCTAATGTAATGCGCATAGGAGAATATTAAGCAATGCGCATTGGTAAAGACTTAGGCCGAGCGATAGAGCAGGCCATTAACAAAAAAATCGCATCGGGATCCGTCAAATCAAAGGCGG
DNA 2: CCGCCTTTGATTTGACGGATCCCGATGCGATTTTTTTGTTAATGGCCTGCTCTATCGCTCGGCCTAAGTCTTTACCAATGCGCATTGCTTAATATTCTCCTATGCGCATTACATTAGGCAATCCCTACCCTTACTGCATTAGGCACAGCCTATTGACAATTGCGTTAGGCGTCGC
For the molecule B2, the binding result in series [3] and in series [1] was “no binding” in each case.

The values are drawn from PMC6765115.
